Assay: protein stability index of a GFP-peptide fusion (GPS, HEK-293T) (PSI 1-6); higher = more stable
Conditions: c terminus: native
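Further: lentivirally expressed fusion library, cells FACS-sorted into six equal-sized GFP/DsRed ratio bins, PSI computed from sequencing read fractions per bin weighted by bin number.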

**Q.** With CQPISFSGFGAEDDDLGGLGLGPC [POLD2 addC] as the protein, how does the protein stability index (parent: NP_006221.1) read?
**A.** Its protein stability index is 2.27.

**Q.** With EQRNSRWNTVLRAVKAKTHHLEPC [TRPA1 addC] as the protein, how does the protein stability index (parent: NP_015628.1) read?
**A.** Its protein stability index is 4.32.

**Q.** For LPALFTDLYSQEITAEEAREALPC [SNF8 addC], which protein stability index (parent: NP_009172.2) is on record?
**A.** The protein stability index was 3.81.

**Q.** With DGWIRVSSDNVADLHEKYSGSTPC [PSMB5 addC] as the protein, how does the protein stability index (parent: NP_002788.1) read?
**A.** The protein stability index was 2.89.

**Q.** Which protein stability index (parent: NP_116010.1) does the source give for HSLRAVSTDPPHHDHHDEFCLMPC [BEX2 addC] here?
**A.** The protein stability index was 3.48.

From the supplement of paper PMC10567573
